From US20210347899A1 (BRIGHAM AND WOMEN S HOSPITAL, published 2021)

T1: cynomolgus KLRG1 ECD (cynomolgus, biotinylated in the OCTET assay, site not stated)
T1 construct: Recombinant proteins were made as FC fusion or as HIS tagged versions; also called cynonolgus KLRG1 ECD
T1 chain: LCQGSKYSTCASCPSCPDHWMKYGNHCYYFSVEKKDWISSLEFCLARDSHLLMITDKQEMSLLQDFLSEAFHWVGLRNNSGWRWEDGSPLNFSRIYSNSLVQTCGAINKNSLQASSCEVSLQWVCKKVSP

T2: full length human KLRG1 (human, UniProt Q96E93 1-195)
T2 construct: whole, on cells; also called CHO-human-KLRG1; CHO-hKLRG1
T2 sequence (looked up): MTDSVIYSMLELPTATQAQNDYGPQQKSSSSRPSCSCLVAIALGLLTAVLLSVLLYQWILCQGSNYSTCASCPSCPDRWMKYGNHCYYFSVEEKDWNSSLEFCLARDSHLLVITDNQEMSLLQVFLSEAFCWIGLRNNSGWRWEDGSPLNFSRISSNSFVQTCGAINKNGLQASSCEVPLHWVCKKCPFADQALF

T3: full length cynomolgus KLRG1 (cynomolgus, UniProt A0A2K5WAP9 1-186)
T3 construct: whole, on cells; also called Cyno KLRG1; CHO-cynomolgus-KLRG1
T3 sequence: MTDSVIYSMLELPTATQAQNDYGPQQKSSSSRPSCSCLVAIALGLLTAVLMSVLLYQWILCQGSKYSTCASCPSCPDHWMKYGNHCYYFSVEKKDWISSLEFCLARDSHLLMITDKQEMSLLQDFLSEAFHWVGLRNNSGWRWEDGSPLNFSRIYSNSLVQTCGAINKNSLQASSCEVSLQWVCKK


Legend:
cynomolgus KLRG1 ECD = biological target: T1, cynomolgus KLRG1 ECD; experiment: hybridoma screen for binding to KLRG1 ECD
full length human KLRG1 [1] = biological target: T2, full length human KLRG1; experiment: FACS competition, loss of HIS tagged E-cadherin binding to CHO-hKLRG1 cells
Description: (§1) The ability of monoclonal antibodies to inhibit E-cadherin/KLRG1 binding was measured by FACS. Binding of E-cadherin to CHO-hKLRG1 cells was first determined by incubating the KLRG1 expressing cells with varying concentration of HIS tagged recombinant E-cadherin and detected by FACS with anti-HIS detection antibody.

full length human KLRG1 [2] = biological target: T2, full length human KLRG1; experiment: cell-based or functional assay
full length human KLRG1 [3] = biological target: T2, full length human KLRG1; experiment: cell-based or functional assay; remark: listed apart in the source
[4] = biological target: T3, full length cynomolgus KLRG1; experiment: FACS on CHO-cynomolgus-KLRG1 cells
Description: (§2) Binding of anti-KLRG1 monoclonal antibodies to cell expressed human and cynomolgus-KLRG1 was carried out by FACS. Chinese hamster ovary (CHO) cells were stably transfected to express full length human KLRG1 (CHO-human-KLRG1) and cynomolgus KLRG1 (CHO-cynomolgus-KLRG1).

full length human KLRG1 [5] = biological target: T2, full length human KLRG1; experiment: FACS on CHO-human-KLRG1 cells
Description: as §2

full length human KLRG1 [6] = biological target: T2, full length human KLRG1; experiment: E-cadherin binding inhibition study, FACS on CHO-hKLRG1 cells; labels of Table 12 stand one row too low, value agrees with ABC_G1N05 in Table 8
Description: as §1
(§3) IC50 values for each antibody were derived from E-cadherin binding inhibition studies and plotted against IFNγ production levels measured in CD8+ T cells IFNγ release assays.

full length human KLRG1 [7] = biological target: T2, full length human KLRG1; experiment: E-cadherin binding inhibition study, FACS on CHO-hKLRG1 cells; labels of Table 12 stand one row too low, value agrees with ABC_G1N08 in Table 8
Description: as §1, §3

Row | Binder | binding result (cynomolgus KLRG1 ECD) | IC50 (full length human KLRG1 [1]) [nM] | IFNγ (full length human KLRG1 [2]) [pg/mL] | IFNγ released (pg/ml), Sample 1 (full length human KLRG1 [3]) [pg/mL] | IFNγ released (pg/ml), Sample 2 (full length human KLRG1 [3]) [pg/mL] | EC50 [4] [nM] | EC50 (full length human KLRG1 [5]) [nM] | IC50 (full length human KLRG1 [6]) [nM] | IC50 (full length human KLRG1 [7]) [nM]
1 | ABC_G1N05 (antibody, V domains shown, Mouse hybridoma monoclonal antibody) VH: EVLLMESGGDLVKPGGSLKLSCAASGFTFSSYDMSWVRQTPDKRLEWVATISSSGRYTFYPDNVKGRFTISRDNAKNTLYLQVSNLKSEDTAMYYCSRTGVTTVVFTDYFDYWGQGTTLTVSS VL: DIQMTQSPSSLSASLGERVSLTCRASQDIGNSLNWLQQGPDGTIKRLIYATSSLDSGVPKRFSGSRSGSTYSLTISSLESEDFVAYYCLQYLSSPPTFGGGTKLEIK | binds | 23 | 1050 | 1010 | 1080 | 0.5 | 39.8 | 23 | –
2 | ABC_G1N08 (antibody, V domains shown, Mouse hybridoma monoclonal antibody) VH: QVQLQQSGAELAKPGASVKLSCKASGYTFTSYFLHWVKQRPGQGLEWIGYMNPSSGYTKCNQKFKDKATLTADKSSSTAYMQVSSLTYEDSAVYYCARDRIGYWDFDVWGTGTTVTVSS VL: DVVMTQSQKFMSTTVGDRVSITCKASQNVGTAVAWYQQKPGQSPKLLIYSASNRYTGVPDRFTGSGSGTDFTLTITNMQSEDLADYFCQQYSSYLTFGAGTKLDLK | binds | 10 | 1040 | 1010 | 1060 | 1.3 | 4.8 | – | 10
